How the values were obtained:
[1] = molecular target: T1, TNF (recombinant human protein) (human, UniProt P01375 77-233); assay: ELISA, recombinant human protein coated, nanobody-Fc titrated, anti-human IgG HRP
T1 construct: Recombinant human protein immobilized at 5 ug/mL for ELISA
Experimental: (§1) Recombinant human protein was diluted in PBS to a final concentration of 5 μg/mL and was immobilized on 96-well flat bottom MaxiSorp plates (Thermo Fisher Scientific) and placed at 4° C. overnight. Plates were washed three times with 225 μL ELISA wash buffer (PBS with 0.05% Tween 20) and 200 μL ELISA blocking buffer (PBS with 1% Casein) was added to the well. Plates were incubated with shaking for 2 hours at room temperature. ELISA blocking buffer was removed from the wells and appropriate dilutions of recombinant nanobodies in 100 μL ELISA blocking buffer was added to each well. Plates were incubated with shaking for 2 hours at room temperature. Plates were washed 3 times with 225 μL ELISA wash buffer and 1:5000 goat anti-human IgG HRP (Millipore Sigma) in 100 μL ELISA blocking buffer was added to the wells. Plates were incubated with shaking for 1 hour at room temperature. Plates were washed 6 times with 225 μL ELISA wash buffer. 50 μL TMB substrate (BD Biosciences) was added to the wells and plates were incubated for 15 minutes in the dark at room temperature. 50 μL 1 M sulfuric acid was added to the wells and absorbance at 450 nm was measured in a Synergy HTX Multi-Mode Microplate Reader (BioTek).

REAP Off-Targets = assay: REAP, nanobody-Fc on yeast-displayed human antigen library
CCL16 [2] = molecular target: T2, CCL16 (human, UniProt O15467 24-120); assay: ELISA, plate-coated recombinant human protein, nanobody-Fc
T2 construct: Recombinant human protein in ELISA and BLI
T2 sequence (looked up): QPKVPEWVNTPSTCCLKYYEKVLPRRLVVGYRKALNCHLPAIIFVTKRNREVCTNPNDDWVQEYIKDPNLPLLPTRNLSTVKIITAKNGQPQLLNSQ
Experimental: as §1

IL10RA = molecular target: T3, IL10RA (human, UniProt Q13651 22-235); assay: as above
T3 construct: Recombinant human protein in ELISA
T3 sequence (looked up): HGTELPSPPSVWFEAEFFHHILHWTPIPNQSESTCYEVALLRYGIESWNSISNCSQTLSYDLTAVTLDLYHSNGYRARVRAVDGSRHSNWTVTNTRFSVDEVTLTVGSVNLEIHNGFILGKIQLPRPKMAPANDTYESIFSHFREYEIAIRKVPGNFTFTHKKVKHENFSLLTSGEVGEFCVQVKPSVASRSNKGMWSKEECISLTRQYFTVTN
Experimental: as §1

IL13 = molecular target: T4, IL13 (human, UniProt P35225 35-146, limits assumed); assay: as above
T4 construct: Recombinant human protein in ELISA
T4 sequence (P35225 35-146 limits assumed): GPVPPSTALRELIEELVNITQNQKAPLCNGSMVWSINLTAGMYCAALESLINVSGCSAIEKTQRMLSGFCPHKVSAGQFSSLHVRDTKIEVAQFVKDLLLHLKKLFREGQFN
Experimental: as §1

IL17A [3] = molecular target: T5, IL17A (human, UniProt Q16552 24-155); assay: BLI, AHC sensor, nanobody-Fc captured, antigen in solution
T5 construct: Recombinant human protein in ELISA and BLI
T5 sequence (looked up): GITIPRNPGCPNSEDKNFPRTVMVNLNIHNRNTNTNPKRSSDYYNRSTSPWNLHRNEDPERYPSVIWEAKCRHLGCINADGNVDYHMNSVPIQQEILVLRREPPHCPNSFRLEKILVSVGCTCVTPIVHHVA
Text: (§2) Octet RED96 System (ForteBio) was used to perform kinetic measurement of nanobody binding to antigens. For Anti-Penta-His Biosensors (HIS1K), his-tagged recombinant human proteins were first immobilized onto the biosensors, and recombinant nanobodies fused with human IgG1 were applied to detect binding. For Anti-Human IgG Fc Capture Biosensors (AHC), recombinant nanobodies fused with human IgG1 were first loaded onto the biosensors, and probes were dipped in serial dilutions of recombinant human antigens.

IL17A [4] = molecular target: T5, IL17A; assay: ELISA, plate-coated recombinant human protein, nanobody-Fc
Experimental: as §1

IL1RN [5] = molecular target: T6, IL1RN (human, UniProt P18510 26-177); assay: as above
T6 construct: Recombinant human protein in ELISA and BLI
T6 sequence (P18510 26-177 limits assumed): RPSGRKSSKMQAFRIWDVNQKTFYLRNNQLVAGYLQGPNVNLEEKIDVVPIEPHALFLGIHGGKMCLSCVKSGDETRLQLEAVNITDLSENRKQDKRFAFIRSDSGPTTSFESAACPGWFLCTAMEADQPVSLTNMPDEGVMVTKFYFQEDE
Experimental: as §1

IL1RN [6] = molecular target: T6, IL1RN; assay: BLI, AHC sensor, nanobody-Fc captured, antigen in solution
Text: as §2

CCL16 [7] = molecular target: T2, CCL16; assay: as above
Text: as §2

LAIR2 = molecular target: T7, LAIR2 (human, UniProt Q6ISS4 22-152); assay: ELISA, plate-coated recombinant human protein, nanobody-Fc
T7 construct: Recombinant human protein in ELISA
T7 sequence (looked up): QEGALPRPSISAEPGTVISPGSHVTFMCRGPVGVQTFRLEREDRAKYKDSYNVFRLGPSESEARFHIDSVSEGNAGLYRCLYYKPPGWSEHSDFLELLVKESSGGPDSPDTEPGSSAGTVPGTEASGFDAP
Experimental: as §1

PROCR [8] = molecular target: T8, PROCR (human, UniProt Q9UNN8 18-210); assay: BLI, AHC sensor, nanobody-Fc captured, antigen in solution
T8 construct: Recombinant human protein in ELISA and BLI
T8 sequence (looked up): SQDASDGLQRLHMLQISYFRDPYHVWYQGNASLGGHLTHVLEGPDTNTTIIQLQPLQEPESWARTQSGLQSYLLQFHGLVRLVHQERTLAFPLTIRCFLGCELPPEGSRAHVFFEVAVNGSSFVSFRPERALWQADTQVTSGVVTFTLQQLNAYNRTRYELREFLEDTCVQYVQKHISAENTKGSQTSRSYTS
Text: as §2

PROCR [9] = molecular target: T8, PROCR; assay: ELISA, plate-coated recombinant human protein, nanobody-Fc
Experimental: as §1

TIGIT = molecular target: T9, TIGIT (human, UniProt Q495A1 22-141); assay: as above
T9 construct: Recombinant human protein in ELISA
T9 sequence (looked up): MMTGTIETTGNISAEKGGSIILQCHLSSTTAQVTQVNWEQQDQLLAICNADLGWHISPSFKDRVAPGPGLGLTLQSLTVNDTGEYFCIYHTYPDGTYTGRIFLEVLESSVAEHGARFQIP
Experimental: as §1

T1 sequence (P01375 77-233 limits assumed): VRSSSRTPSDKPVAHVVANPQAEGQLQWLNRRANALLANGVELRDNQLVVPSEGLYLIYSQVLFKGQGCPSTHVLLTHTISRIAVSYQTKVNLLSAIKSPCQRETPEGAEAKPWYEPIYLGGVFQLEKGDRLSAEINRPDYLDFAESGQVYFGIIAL

B1: TNF_Nb105 (Fc fusion)
chain: QVQLQESGGGLVQAGGSLRLSCAASGTISVTYFMGWYRQAPGKERELVAGIGTGANTYYADSVKGRFTISRDNAKNTVYLQMNSLKPEDTAVYYCAAYIGAPVYGDGQSRNKAKVYDYWGQGTQVTVSS
notes: Nanobody expressed as an Fc fusion protein (fused with human IgG1) in Expi293 cells; not shown: human IgG1 Fc; nanobodies expressed as Fc fusion from vector pCER243
B1 was tested, and the EC50 [1] was 5.57 nM and the REAP Off-Targets (number) (REAP Off-Targets) was 2 off-targets.

B2: TNF_Nb109 (Fc fusion)
chain: QVQLQESGGGLVQAGGSLRLSCAASGYISGEWFMGWYRQAPGKERELVAGISRGSTTYYADSVKGRFTISRDNAKNTVYLQMNSLKPEDTAVYYCAVYLTHKGYDGADGVVHHRYWGQGTQVTVSS
notes: as for B1
Binder B2 has an EC50 [1] of 23.8 nM and an REAP Off-Targets (number) (REAP Off-Targets) of 7 off-targets.

B3: CCL16_Nb2.5 (Fc fusion)
chain: QVQLQESGGGLVQAGGSLRLSCAASGYIFGVYDMGWYRQAPGKERELVATISAGGTTNYADSVKGRFTISRDNAKNTVYLQMNSLKPEDTAVYYCAAYTDYSPYDGAALVYWGQGTQVTVSS
notes: Nanobody expressed and tested as Fc fusion (human IgG1); not shown: human IgG1 Fc (vector pCER243)
B3 gave an EC50 (CCL16 [2]) of 1.78 nM.

B4: IL10RA_Nb72 (Fc fusion)
chain: QVQLQESGGGLVQAGGSLRLSCAASGTISSEHAMGWYRQAPGKERELVAGITYGSITNYADSVKGRFTISRDNAKNTVYLQMNSLKPEDTAVYYCAVYYYYRATIYHALGYWGQGTQVTVSS
notes: as for B3
Work on B4 yielded an EC50 (IL10RA) of 16.9 nM.

B5: IL13_Nb2.41 (Fc fusion)
chain: QVQLQESGGGLVQAGGSLRLSCAASGTIFVDEFMGWYRQAPGKEREFVASINDGGSTYYADSVKGRFTISRDNAKNTVYLQMNSLKPEDTAVYYCAVFEPSPDGDPFGDRAWFWYWGQGTQVTVSS
notes: as for B3
B5 gave an EC50 (IL13) of 1.02 nM.

B6: IL13_Nb2.42 (Fc fusion)
chain: QVQLQESGGGLVQAGGSLRLSCAASGTISATDFMGWYRQAPGKERELVAAINHGGSTYYADSVKGRFTISRDNAKNTVYLQMNSLKPEDTAVYYCAAARDDYPWHDYWGQGTQVTVSS
notes: as for B3
With B6 the EC50 (IL13) was 38.4 nM.

B7: IL17A_Nb2.90 (Fc fusion)
chain: QVQLQESGGGLVQAGGSLRLSCAASGYISLRFYMGWYRQAPGKEREFVATIDDGSSTYYADSVKGRFTISRDNAKNTVYLQMNSLKPEDTAVYYCAVTAQTYYDHVYWGQGTQVTVSS
notes: as for B3
B7 gave a Kd (IL17A [3]) of 0.977 nM and an EC50 (IL17A [4]) of 0.249 nM.

B8: IL17A_Nb2.92 (Fc fusion)
chain: QVQLQESGGGLVQAGGSLRLSCAASGTISQGDYMGWYRQAPGKEREFVASIAIGTITYYADSVKGRFTISRDNAKNTVYLQMNSLKPEDTAVYYCAVSVQFSYDFYYWGQGTQVTVSS
notes: as for B3
B8 was tested, and the Kd (IL17A [3]) was 0.656 nM and the EC50 (IL17A [4]) was 0.179 nM.

B9: IL1RN_Nb75 (Fc fusion)
chain: QVQLQESGGGLVQAGGSLRLSCAASGNIFRYDNMGWYRQAPGKEREFVATITYGSNTYYADSVKGRFTISRDNAKNTVYLQMNSLKPEDTAVYYCAAYFPYRSYDNSADTSSHSYWGQGTQVTVSS
notes: as for B3
B9 showed an EC50 (IL1RN [5]) of 6.9 nM.

B10: IL1RN_Nb77 (Fc fusion)
chain: QVQLQESGGGLVQAGGSLRLSCAASGTIFTWLVMGWYRQAPGKERELVASIDPGTNTYYADSVKGRFTISRDNAKNTVYLQMNSLKPEDTAVYYCAARYVAGYTVGAYHYYWGQGTQVTVSS
notes: as for B3
Work on B10 yielded a Kd (IL1RN [6]) of 852 nM and an EC50 (IL1RN [5]) of 0.168 nM.

B11: CCL16_Nb2.1 (Fc fusion)
chain: QVQLQESGGGLVQAGGSLRLSCAASGYISSYWDMGWYRQAPGKERELVAAIAPGTITYYADSVKGRFTISRDNAKNTVYLQMNSLKPEDTAVYYCAASEFDNEAHDYWGQGTQVTVSS
notes: as for B3
In the case of B11, the Kd (CCL16 [7]) is reported as 17.4 nM and the EC50 (CCL16 [2]) is reported as 0.882 nM.

B12: LAIR2_Nb2.51 (Fc fusion)
chain: QVQLQESGGGLVQAGGSLRLSCAASGSIFYPSAMGWYRQAPGKERELVASIGQGGSTYYADSVKGRFTISRDNAKNTVYLQMNSLKPEDTAVYYCAVQPYSANLHRYWGQGTQVTVSS
notes: as for B3
B12 gave an EC50 (LAIR2) of 0.379 nM.

B13: PROCR_Nb87 (Fc fusion)
chain: QVQLQESGGGLVQAGGSLRLSCAASGSISSYPYMGWYRQAPGKERELVASIASGTNTYYADSVKGRFTISRDNAKNTVYLQMNSLKPEDTAVYYCAADSTGPWSHVYWGQGTQVTVSS
notes: as for B3
B13 showed a Kd (PROCR [8]) of 92.1 nM and an EC50 (PROCR [9]) of 0.0104 nM.

B14: PROCR_Nb88 (Fc fusion)
chain: QVQLQESGGGLVQAGGSLRLSCAASGTIFKLGYMGWYRQAPGKEREFVATITTGATTYYADSVKGRFTISRDNAKNTVYLQMNSLKPEDTAVYYCAADTYGPWAYSYWGQGTQVTVSS
notes: as for B3
In the case of B14, the Kd (PROCR [8]) is reported as 62.9 nM and the EC50 (PROCR [9]) is reported as 0.287 nM.

B15: TIGIT_Nb2.82 (Fc fusion)
chain: QVQLQESGGGLVQAGGSLRLSCAASGTISVVQDMGWYRQAPGKERELVAGIAKGGNTYYADSVKGRFTISRDNAKNTVYLQMNSLKPEDTAVYYCAASPIPFSYAYPAYHYWGQGTQVTVSS
notes: as for B3
In the case of B15, the EC50 (TIGIT) is reported as 12.8 nM.

B16: TIGIT_Nb2.84 (Fc fusion)
chain: QVQLQESGGGLVQAGGSLRLSCAASGNISYVRWMGWYRQAPGKERELVAGIGVGGITNYADSVKGRFTISRDNAKNTVYLQMNSLKPEDTAVYYCAATDVDWILYRYWGQGTQVTVSS
notes: as for B3
In the case of B16, the EC50 (TIGIT) is reported as 483 nM.

From patent publication US20230416942A1 (YALE UNIVERSITY, published 2023)
